Laboratory results: patent publication US20230183352A1
Residue numbers refer to the chain shown, from its start.

B1: QP1166 (Fc fusion, not shown: a dimerising Fc or GST)
chain: QVQLVESGGDSVQPGGSLRLSCAASGFTYGTYAMSWFRQAPGKEREGVACIDIYGRTSYTDPVKGRFTISQDNAKNTLYLQMNSLKPEDTAMYYCAARDFGYCTASWVHEGFSRYWGQGTQVTVSS
B2: QP320 (Fc fusion, not shown: a dimerising Fc or GST)
chain: EVQLLESGGGLVQPGGSLRLSCAASGFTYGTYAMSWVRQAPGKGLEWVSCIDIYGRASYTDPVKGRFTISRDNSKNTLYLQMNSLRAEDTAVYYCAARDFGYCTASWVHEGFSRYWGQGTLVTVSS
B3: QP324 (Fc fusion, not shown: a dimerising Fc or GST)
chain: B2 chain with S49A, A57T, R71Q
B4: QP325 (Fc fusion, not shown: a dimerising Fc or GST)
chain: B2 chain with V37F, W47G, S49A, A57T, R71Q
B5: QP190191 (antibody, human IgG1, V domains shown)
VH: EVKLVESGGGLVKPGGSLKLSCAASGFTFSNYAMSWVRQTPEKRLEWVASIISGGRTYYLDSEKGRFTISRDNARNNLYLQMSSLRSEDTAMYYCTRIYYGNSFDYWGQGTTLTVSS
VL: DIVMTQSPSSQTVTAGEKVTMSCKSSQSLLNSGNQKNYLTWYQQKPGQPPKLLIYWASTRESGVPDRFTGSGSGTDFTLTISNMQAEDLAVYYCQNDYSYPFTFGSGTKLEIK
B6: QP207208 (antibody, human IgG1, V domains shown)
VH: EVQLQQSGPELVKPGASVKMSCKASGYTFTSYIMHWVKQKPGQGLEWIGYINPYNDGTKYNEKFKGKATLTSDKSSSTVYMELSSLTSEDSAVYCCARLGFTTRNAMDYWGQGTSVTVSS
VL: B5 VL with Q11L, T12S, T14S, S22N, T40A, W56G, N83S, M84V, Y98H
B7: QP199200 (antibody, human IgG1, V domains shown)
VH: DVQLVESGGGLVQPGGSRKLSCAASGFTFSSFGMHWVRQAPEKGLEWVAYISSGSNSIYYVDTVKGRFTISRDNPKNTLFLQMTSLKSEDTAMYYCARNAYYGNSFDYWGQGTTLTVSS
VL: B5 VL with Q11L, D76V, N83S, M84V, Y93F, D97N, S99Y, F102L, S106A, I112L
B8: QP192193 (antibody, human IgG1, V domains shown)
VH: QVQLQQSGAELVRPGSSVKISCKASGYAFSSYWMNWVKQRPGQGLEWIGQIYPGNGDTTYNGKFKGQATLTADKSSSTVYMQLSSLTSEDSAVYFCARFVKGNAMDYWGQGTSVTVSS
VL: B5 VL with Q11L, K45N, L52M, T75I, T78S, N83S, M84V, V91L, D97A
B9: QP201202 (antibody, human IgG1, V domains shown)
VH: EVQLQQSGPELVKPGASVKMSCKASGYTFTNYFVHWVKQKPGQGLEWIGYINPYNDDTKYNEKFKGKATLTSDKSSSTAYMDLSSLTSEDSAVYYCLSLRFFAYWGQGTLVTVSA
VL: B5 VL with Q11L, P49A, T69I, N83H, M84V, Y93F, F102L, S106A, K109N, I112L

Biological target: Biotin QP004.3 (biotin-PDL1-FC) (human) (UniProt Q9NZQ7)
Test: blocking ELISA, PD1-FC coated, biotin-PDL1-FC plus antibody; competitor PD1-FC

Biotin QP004.3 (biotin-PDL1-FC) (human), sequence (Q9NZQ7 19-238 limits assumed): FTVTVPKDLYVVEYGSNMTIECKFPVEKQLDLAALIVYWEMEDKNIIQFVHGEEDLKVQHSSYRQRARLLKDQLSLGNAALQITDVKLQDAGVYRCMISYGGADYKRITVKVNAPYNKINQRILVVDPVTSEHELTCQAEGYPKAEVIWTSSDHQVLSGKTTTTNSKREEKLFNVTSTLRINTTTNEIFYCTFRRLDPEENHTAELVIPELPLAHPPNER

ELISA reading at 0.0457 nM antibody | ELISA reading at 0.1372 nM antibody | ELISA reading at 0.4115 nM antibody | ELISA reading at 1.2346 nM antibody | ELISA reading at 3.7037 nM antibody | ELISA reading at 11.1111 nM antibody | ELISA reading at 33.3333 nM antibody | ELISA reading at 100.0000 nM antibody | Binder
1.16 | 1.24 | 1.06 | 1.13 | 1.06 | 0.508 | 0.239 | 0.167 | B1
1.21 | 1.3 | 1.47 | 1.08 | 1.11 | 1.12 | 1.02 | 0.793 | B2
1.29 | 1.06 | 0.901 | 0.879 | 0.895 | 0.753 | 0.737 | 0.661 | B3
1.08 | 1.02 | 0.975 | 0.995 | 1.03 | 0.513 | 0.238 | 0.156 | B4

Biological target: Claudin 18.1 (CLDN18.1), expressed on CHOS-CLDN18.1 cells (UniProt P56856)
Test: FACS, CHOS-CLDN18.1 cells, 10 µg/ml

Claudin 18.1 (CLDN18.1), expressed on CHOS-CLDN18.1 cells, sequence (P56856 whole entry): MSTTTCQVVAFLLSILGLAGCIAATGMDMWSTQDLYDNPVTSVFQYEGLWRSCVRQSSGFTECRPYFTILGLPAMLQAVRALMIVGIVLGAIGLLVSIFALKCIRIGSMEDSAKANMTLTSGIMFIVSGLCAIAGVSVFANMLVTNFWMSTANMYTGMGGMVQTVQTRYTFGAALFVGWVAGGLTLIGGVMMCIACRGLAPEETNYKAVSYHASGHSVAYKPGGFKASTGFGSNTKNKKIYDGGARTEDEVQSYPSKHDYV

MFI | Binder
1060 | B5
1320 | B6
918 | B7
1030 | B8
1150 | B9

Biological target: Biotin QP004.3 (biotin-PDL1-FC) (human) (UniProt Q9NZQ7)
Test: binding ELISA, antibody coated, biotin-PDL1-FC titrated

ELISA reading at 0.0007 µg/ml biotin-PDL1-FC | ELISA reading at 0.0021 µg/ml biotin-PDL1-FC | ELISA reading at 0.0062 µg/ml biotin-PDL1-FC | ELISA reading at 0.0185 µg/ml biotin-PDL1-FC | ELISA reading at 0.0556 µg/ml biotin-PDL1-FC | ELISA reading at 0.1667 µg/ml biotin-PDL1-FC | ELISA reading at 0.5000 µg/ml biotin-PDL1-FC | ELISA reading at 2.0000 µg/ml biotin-PDL1-FC | Binder
0.217 | 0.56 | 1.55 | 2.57 | 3.23 | 3.13 | 3.28 | 3.41 | B1
0.125 | 0.114 | 0.108 | 0.0792 | 0.0843 | 0.0957 | 0.142 | 0.23 | B2
0.192 | 0.141 | 0.15 | 0.107 | 0.0882 | 0.129 | 0.201 | 0.413 | B3
0.182 | 0.598 | 1.32 | 2.12 | 2.78 | 3.11 | 3.21 | 3.42 | B4
